Test results taken from PMC9221443, “Peptidomimetics Based on C-Terminus of Blm10 Stimulate Human 20S Proteasome Activity and Promote Degradation of Proteins” (Biomolecules, 2022).

System: 20S proteasome (h20S)
Assay: Microscale thermophoresis (MST) protein-proteasome interaction
Assay type: binding, human
Conditions: NT-647-labeled protein titrated with h20S 0.06-1965 nM; 22 °C; 20 mM Tris-HCl pH 7.2; three independent experiments; read-out: EC50 of binding to 20S proteasome (MST, Hill fit)
Protocol: Enolase, α-synuclein and their oxidized forms were labeled using Monolith Protein Labeling Kit RED-NHS 2nd Generation Amine Reactive, NT-647 (Nanotemper, München, Germany), according to the manufacturer instructions. The labeling process was carried out in 50 mM HEPES buffer, pH 7.4, in the protein:NT-647 1:2 ratio. The incubation time was 60 min for enolase and 30 min for α-synuclein, at 21 °C. After labeling, the excess of the fluorescent reagent was removed using the columns provided by the manufacturer and 20 mM Tris-HCl buffer, pH 7.2, containing 200 mM NaCl and 10% glycerol. The obtained labeled proteins were concentrated on Amicon 3K spin-columns (Merck, Darmstadt, Germany). Protein concentrations were determined by measuring absorbance at 280 nm, using UV/Vis spectrophotometer (DU®730 Beckman Coulter).
Direct interactions between the fluorescently labeled, native and oxidized, proteins and the 20S proteasome were examined using microscale thermophoresis (NanoTemper Monolith NT.115). The labeled protein concentration was kept constant at 250 nM for native and oxidized α-synuclein and 125 nM and 25 nM for native and oxidized enolase, respectively. […] The EC50 values were calculated based on results obtained in three independent experiments.

B1: oxidized enolase: human enolase 2 incubated with 0.5% H2O2 for 2 h at 30 °C (protein, UniProt P09104 2-434, looked up)
Gamma-enolase: SIEKIWAREILDSRGNPTVEVDLYTAKGLFRAAVPSGASTGIYEALELRDGDKQRYLGKGVLKAVDHINSTIAPALISSGLSVVEQEKLDNLMLELDGTENKSKFGANAILGVSLAVCKAGAAERELPLYRHIAQLAGNSDLILPVPAFNVINGGSHAGNKLAMQEFMILPVGAESFRDAMRLGAEVYHTLKGVIKDKYGKDATNVGDEGGFAPNILENSEALELVKEAIDKAGYTEKIVIGMDVAASEFYRDGKYDLDFKSPTDPSRYITGDQLGALYQDFVRDYPVVSIEDPFDQDDWAAWSKFTANVGIQIVGDDLTVTNPKRIERAVEEKACNCLLLKVNQIGSVTEAIQACKLAQENGWGVMVSHRSGETEDTFIADLVVGLCTGQIKTGAPCRSERLAKYNQLMRIEEELGDEARFAGHNFRNPSVL
modifications: H2O2-oxidized
notes: human enolase 2 incubated with 0.5% H2O2 for 2 h at 30 °C
  EC50: 87.8 ± 12.9 nM
